Experimental data from article PMC8809517, “Cofactor-independent RNA editing by a synthetic S-type PPR protein”.

Experiments:
Test in all cases: high-throughput RNA pulldown from lysate on Ni-NTA beads; HRP: 50 mM Tris pH 8, 150 mM NaCl, 1 mM beta-mercaptoethanol, 50 ug/ml BSA, 3 ug/ml yeast RNA, 0.5% heparin; ITC and FP: Tris pH 8, 200 mM KCl, 5% glycerol; MST: 50 mM Tris pH 8, 200 mM NaCl, 1 mM DTT, BSA, heparin, 0.05% Tween 20
Conditions in all cases: tags: N-terminal His-eGFP
[1] = target: T1, GFP-9S library array, motif 4 ND N98Q;D124Q (synthetic construct, N98Q;D124Q)
T1 chain: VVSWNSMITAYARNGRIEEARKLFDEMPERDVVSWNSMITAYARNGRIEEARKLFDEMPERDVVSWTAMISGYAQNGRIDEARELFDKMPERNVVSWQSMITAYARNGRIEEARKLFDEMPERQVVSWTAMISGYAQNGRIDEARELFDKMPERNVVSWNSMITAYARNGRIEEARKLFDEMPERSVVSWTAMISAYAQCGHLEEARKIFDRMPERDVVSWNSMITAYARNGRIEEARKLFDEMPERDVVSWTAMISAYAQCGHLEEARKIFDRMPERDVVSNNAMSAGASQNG

[2] = target: T2, GFP-9S library array, motif 4 ND N98R;D124P (synthetic construct, N98R;D124P)
T2 chain: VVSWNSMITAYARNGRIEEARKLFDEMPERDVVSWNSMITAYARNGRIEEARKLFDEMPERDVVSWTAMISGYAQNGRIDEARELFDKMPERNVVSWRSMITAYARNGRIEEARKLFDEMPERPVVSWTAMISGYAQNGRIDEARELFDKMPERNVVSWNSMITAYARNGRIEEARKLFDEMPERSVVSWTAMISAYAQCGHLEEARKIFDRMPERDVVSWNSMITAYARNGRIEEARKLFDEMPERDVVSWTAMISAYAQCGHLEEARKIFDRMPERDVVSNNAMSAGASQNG

[3] = target: T3, GFP-9S library array, motif 4 ND N98P;D124P (synthetic construct, N98P;D124P)
T3 chain: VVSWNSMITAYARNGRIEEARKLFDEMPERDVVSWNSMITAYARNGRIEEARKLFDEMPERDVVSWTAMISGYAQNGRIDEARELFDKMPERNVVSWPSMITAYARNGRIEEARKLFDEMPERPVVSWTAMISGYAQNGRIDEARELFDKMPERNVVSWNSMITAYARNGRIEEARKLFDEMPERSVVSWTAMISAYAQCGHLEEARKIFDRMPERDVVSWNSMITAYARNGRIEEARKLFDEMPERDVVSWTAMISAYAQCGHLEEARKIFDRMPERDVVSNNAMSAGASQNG

[4] = target: T4, GFP-9S library array, motif 4 ND N98E;D124I (synthetic construct, N98E;D124I)
T4 chain: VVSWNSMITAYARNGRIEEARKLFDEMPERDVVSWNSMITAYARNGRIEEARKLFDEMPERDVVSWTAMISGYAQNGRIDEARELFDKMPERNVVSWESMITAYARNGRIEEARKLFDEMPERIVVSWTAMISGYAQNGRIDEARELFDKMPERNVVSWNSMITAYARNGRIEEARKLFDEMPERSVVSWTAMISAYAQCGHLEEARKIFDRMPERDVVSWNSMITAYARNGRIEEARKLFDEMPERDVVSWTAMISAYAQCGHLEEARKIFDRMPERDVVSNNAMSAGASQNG

[5] = target: T5, GFP-9S library array, motif 4 ND N98C;D124H (synthetic construct, N98C;D124H)
T5 chain: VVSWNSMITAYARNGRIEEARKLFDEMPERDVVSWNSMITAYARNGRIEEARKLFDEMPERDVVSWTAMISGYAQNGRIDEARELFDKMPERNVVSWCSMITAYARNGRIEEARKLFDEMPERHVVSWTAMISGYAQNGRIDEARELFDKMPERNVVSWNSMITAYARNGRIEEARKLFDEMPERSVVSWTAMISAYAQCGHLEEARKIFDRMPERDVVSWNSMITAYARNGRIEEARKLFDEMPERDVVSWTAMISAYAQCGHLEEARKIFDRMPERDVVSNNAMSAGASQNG

Binder	Kd ([1]; label: 5' Cy5) [nM]	Kd ([2]; label: 5' Cy5) [nM]	Kd ([3]; label: 5' Cy5) [nM]	Kd ([4]; label: 5' Cy5) [µM]	Kd ([5]; label: 5' Cy5) [nM]	Kd ([1]; label: 5' IRDye 800CW) [nM]	Kd ([2]; label: 5' IRDye 800CW) [nM]	Kd ([3]; label: 5' IRDye 800CW) [nM]	Kd ([4]; label: 5' IRDye 800CW) [µM]	Kd ([5]; label: 5' IRDye 800CW) [nM]
AUUAGACGUGA (ssRNA) [Cy5-rpoA-G]	95.5	151	326	3.86	57.7	–	–	–	–	–
AUUACACGUGA (ssRNA) [Cy5-rpoA]	118	143	273	4.24	124	–	–	–	–	–
AUUAAACGUGA (ssRNA) [IR-rpoA-A]	–	–	–	–	–	167	335	1420	5.14	25.4
AUUAUACGUGA (ssRNA) [IR-rpoA-U]	–	–	–	–	–	123	163	561	4.07	152
